Laboratory results taken from patent US20030223996A1 (published 2003).

T1: Tumour Necrosis Factor-beta (human, UniProt P01374 35-205)
T1 construct: also called TNFβ; TNF-β
T1 sequence (looked up): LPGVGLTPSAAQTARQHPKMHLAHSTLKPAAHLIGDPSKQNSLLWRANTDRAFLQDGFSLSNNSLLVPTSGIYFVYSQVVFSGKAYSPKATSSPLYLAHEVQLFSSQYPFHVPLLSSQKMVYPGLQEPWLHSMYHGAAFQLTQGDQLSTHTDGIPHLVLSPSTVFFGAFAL


Experiments:
[1] = target: T2, Tumour Necrosis Factor-alpha (human, UniProt P01375 77-233); assay: phage ELISA
T2 construct: also called TNFα; TNF-α
T2 sequence (P01375 77-233 limits assumed): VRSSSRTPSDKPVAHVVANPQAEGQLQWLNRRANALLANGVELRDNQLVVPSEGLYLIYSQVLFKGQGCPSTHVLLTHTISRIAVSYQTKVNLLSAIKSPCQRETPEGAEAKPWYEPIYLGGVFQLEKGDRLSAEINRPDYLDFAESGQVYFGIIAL
Method: (§1) To determine the specificity of the 48 scFvs, a phage ELISA was performed against human and mouse BLyS, and a panel of related and unrelated human antigens: Fas ligand, TRAIL, TNFα, TNFβ, and PBS. The: Fas ligand, TRAIL, TNFα, and TNFβ antigens were obtained from R&D Systems, Minneapolis, Minn. Individual E. coli colonies containing phagemid were inoculated into 5 ml 2YTAG and incubated at 37° C. for 4 hours, shaking. M13KO7 helper phage (Pharmacia) was added to each tube to a MOI of 10 and incubated […] 1 hour, the first 30 minutes static and the final 30 minutes with gentle shaking. Cells were pelleted by centrifugation at 3,500 rpm for 10 minutes and the supernatant discarded. Cell pellets were resuspended in 5 ml 2TYAK and incubated at 30° C. overnight with shaking. The next day, the cells were pelleted by centrifugation at 3,500 rpm for 10 minutes. The phage-containing supernatant (5 ml) was carefully transferred to a fresh tube, 1 ml of 6MPBS was added, and the tube was incubated at room temperature for 1 hour to pre-block the phage prior to ELISA.
(§2) All antigens were coated at 1 μg/ml. ELISAs were performed essentially as described in Example 2. The only exception to this being the detection of phage antibody binding to mouse BLyS where the step involving incubation with the HRP-labelled anti-mouse polymer was omitted. Binding to mouse BLyS was detected with TMB as in Example 2.

[2] = target: T1, Tumour Necrosis Factor-beta; assay: phage ELISA
Method: as §1, §2

[3] = target: T3, mouse membrane-bound BLyS on P388 plasma membranes (mouse, UniProt Q9WU72 1-309); assay: competition phage ELISA on P388 membranes
T3 construct: whole, on cells; Plasma membrane preparations, not intact cells
T3 sequence (Q9WU72 whole entry): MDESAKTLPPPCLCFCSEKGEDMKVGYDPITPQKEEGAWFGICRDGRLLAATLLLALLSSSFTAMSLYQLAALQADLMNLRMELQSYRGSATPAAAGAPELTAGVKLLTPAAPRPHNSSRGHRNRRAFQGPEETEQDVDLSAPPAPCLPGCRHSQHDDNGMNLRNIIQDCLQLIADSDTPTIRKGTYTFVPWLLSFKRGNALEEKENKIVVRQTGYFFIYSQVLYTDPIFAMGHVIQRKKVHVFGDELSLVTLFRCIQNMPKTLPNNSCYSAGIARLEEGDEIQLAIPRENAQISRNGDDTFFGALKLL
Method: The ability of the 5 scFvs listed in Table 8 to also recognize murine membrane-bound BLyS was determined using a competition ELISA. This assay assesses the ability of test phage scFvs to bind to the membrane-bound form of BLyS on the murine cell line, P388, plasma membranes in the presence of different forms of competing human BLyS. Competing BLyS was either presented as the His-tagged form of BLyS, or soluble BLyS. ScFvs that recognize mouse membrane-bound BLyS would give an ELISA signal on the P388 plasma membranes that is competed out by pre-incubation with HIS-tagged BLyS but not by pre-incubation with soluble BLyS.
P388 plasma membranes (50 μl per well) were coated at 10 μg/ml in PBS onto Falcon 96-well plates overnight at 4° C. The method is otherwise essentially as described Example 16.

Binder	binding result [3]	binding result [1]	also measured
I001C09 (scFv) scFv: GVQLVQSGPEVKKPGASVKVSCTASGYTFTSYGVSWVRQAPGQGLEWIGWISAHNGQTKYAEKFQGRVTMTRNTSISTAYMELSSLRSEDTAVYYCARDGSYDILTGYYIDNYMDVWGKGTMVTVSSGGGGSGGGGSGGGGSSELTQDPAVSVALGQTVRITCQGDSLRSYYTNWFQQKPGQAPLLVVYAKNKRPSGIPDRFSGSSSGNTASLTITGAQAEDEADYYCHSRDSSGNHVLFGGGTKLTVLG	–	no binding	–
I016F04 (scFv) scFv: QVQLQQSGSELKKPGASVKVSCKVSGYSLTKMSMHWVRQSPGEGLEWVGGIDPETRQPVYAQKFQGRVTITKDTSASAAYMELSSLGSEDTALYYCARATYDPLTGYSFDGFDIWGQGTLVTVSSGGGGSGGGGSGGGGSQSVLTQPASVSGSPGQSITISCTGTSSDVGGYNYVSWYQQHPGKAPKLMIYEGSKRPSGVSNRFSGSKSGNTASLTISGLQAEDEADYYCSSYTTRSTRVFGGGTKLTVLG	–	–	binding result [2]: no binding
I099D03 (scFv) scFv: QVQLVQSGAEVKKPGASVRVSCKSSGYTFTNYGISWVRQAPGQGLEWMGWISNNNGKTYYAQKVQGRVTMTTDTSTSTDYMELRGLRSDDTAIYYCARDNGGGTIGFDYWGRGTLVTVSSGGGGSGGGGSGGGGSAQAVLTQPSSVSGAPGQRVTMSCTGSSSNIGAGYDVHWYQQLPGTAPKLLIYDNTNRPSGVPDRFSGSRSGTSASLAITGLQAEDEADYFCQSYDITLSAVFGTGTKVTVLG	binds	–	–
I050A07 (scFv) scFv: QVQLVQSGAEVKKPGASMKVSCKASAGRASAYGFAMHPIHWVRQAPGQGLEWMGWINGGTGNTKYSEKFLGRVTMTSDTSATTAYMELSSLRSEDTAVYYCARQDNDPLTGYKLGFDYWGKGTLVTVSSGGGGSGGGGSGGGGSAQSVVTQPPSVSGAPGQRVTISCTGSSTNVGAGYGVHWYQQFPETAPKLLIYGGSNRPSGVPDRFSGSQSGTSASLAITGLQAEDEADYYCQSYDTTLSGYVFGTGTKVTVLG	–	no binding	–

Continued, in another order:

binding result [3]	Binder	binding result [1]	also measured
binds	I079E02 (scFv) scFv: QVQLVQSGAEVKKPGSSVKVSCKASGGTFSSYAISWVRQAPGQGLEWMGGIIPIFGTANYAQKFQGRVTITADKSTSTAYMELSSLRSDDTAVYYCARDSGSYYYDAFDIWGKGTMVTVSSGGGGSGGGGSGGGGSDIVMTQSPSTLSASVGDRVTITCRASQGISSWLAWYQQKPGKAPKLLIYAASSLQSGVPSRFSGSGSGTDFTLTISSLQPEDFATYYCQQANSFPLTFGGGTKVEIKR	–	–
binds	I082H08 (scFv) scFv: EVQLVESGGGLVQPGGSLRLSCAASGFTFSDYGMHWVRQRPGKGLEWIAFIGSDGSNKYYGDTVKGRFTISRDNAKNSLYLQMNSLRAEGTAVYYCARDWDMDVWGQGTMVTVSSGGGGSGGGGSGGGGSSHVILTQPRSVSGSPGQSVTISCTGTSSDVGGYHYVSWYQQHPGKAPRLMIYEVTKRPSGVSNRFSGSKSGNTASLTISGVQAEDEADYYCSSYTSASTVIFGGGTKLTVLG	–	–
